These results are taken from PMC4742251, “The Malarial Exported PFA0660w Is an Hsp40 Co-Chaperone of PfHsp70-x” (PLoS ONE, 2016).

The term Kd denotes the concentration at which binding is half-saturated.

Common to all, as to conditions: both partners purified
Assay [1] has as its target T1, HSPA1A-(His)6 (human, UniProt P0DMV8 1-641).
T1 construct: human Hsp70 (HSPA1A); also called human Hsp70; HSPAIA
In words: SPR; Hsp70s amine-coupled to a GLC chip (ProteOn XPR36); BSA, Hsj1a or PFA0660w at 1 μM as analyte in PBST pH 7.4, with and without 1 mM ATP; read qualitatively.

For the next assay, the target named is (His)6-PfHsp70-x (Plasmodium falciparum). Briefly: SPR; Hsp70s amine-coupled to a GLC chip (ProteOn XPR36); PFA0660w 200-1000 nM as analyte in PBST pH 7.4 with 1 mM ATP; 60 μl/min, 90 s contact, 300 s dissociation; separate fits of association and dissociation, KD calculated from the rate constants.
Assay [2] deals with T1, HSPA1A-(His)6. Described as above.
A further assay has as its target T2, (His)6-PfHsp70-1 (Plasmodium falciparum, UniProt Q8IB24 1-677).
T2 construct: PfHsp70-1, parasite-resident Hsp70 of Plasmodium falciparum
The description is as above.

T1 sequence (P0DMV8 whole entry): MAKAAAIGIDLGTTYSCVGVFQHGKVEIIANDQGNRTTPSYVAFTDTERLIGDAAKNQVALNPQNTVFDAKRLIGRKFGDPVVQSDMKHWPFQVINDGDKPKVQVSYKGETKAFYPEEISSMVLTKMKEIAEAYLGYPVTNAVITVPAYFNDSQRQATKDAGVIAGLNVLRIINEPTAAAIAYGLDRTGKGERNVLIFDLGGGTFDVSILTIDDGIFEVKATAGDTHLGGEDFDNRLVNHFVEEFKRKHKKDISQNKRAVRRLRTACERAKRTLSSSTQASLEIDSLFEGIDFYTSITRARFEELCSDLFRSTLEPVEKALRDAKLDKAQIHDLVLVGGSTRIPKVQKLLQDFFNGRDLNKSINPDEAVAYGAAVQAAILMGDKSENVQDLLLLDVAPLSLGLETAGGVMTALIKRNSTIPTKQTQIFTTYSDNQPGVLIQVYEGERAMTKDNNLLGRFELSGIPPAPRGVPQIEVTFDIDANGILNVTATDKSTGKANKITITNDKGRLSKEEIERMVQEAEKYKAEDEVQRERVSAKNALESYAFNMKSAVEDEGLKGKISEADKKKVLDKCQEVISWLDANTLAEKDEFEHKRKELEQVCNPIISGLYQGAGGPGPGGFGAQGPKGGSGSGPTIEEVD

B1: (His)6-Hsj1a (natural protein, UniProt P25686-2 1-277, looked up)
chain: MASYYEILDVPRSASADDIKKAYRRKALQWHPDKNPDNKEFAEKKFKEVAEAYEVLSDKHKREIYDRYGREGLTGTGTGPSRAEAGSGGPGFTFTFRSPEEVFREFFGSGDPFAELFDDLGPFSELQNRGSRHSGPFFTFSSSFPGHSDFSSSSFSFSPGAGAFRSVSTSTTFVQGRRITTRRIMENGQERVEVEEDGQLKSVTINGVPDDLALGLELSRREQQPSVTSRSGGTQVQQTPASCPLDSDLSEDEDLQLAMAYSLSEMEAAGKKPADVF
notes: Control Hsp40; also called DNAJB2a
For B1, in the assay with HSPA1A-(His)6 [1], the binding result is listed as “binds”.

B2: (His)6-PFA0660w (natural protein)
chain: AEGNKNFFFNKDNGVFGKSSMDYYTLLGVDKGCSEDDLRRAYLKLAMKWHPDKHVNKGSKVEAEEKFKNICEAYSVLSDNEKRVKYDLFGMDALKQSGFNSSNFQGNISINPLEVFTKAYSFYNKYFSKSSGAGNHNIFTHIKNLYPLRNDFSEDESSYNDVEEYEVPLYVTLEDLYNGCTKTLKVTRKRYDGCYLYYEDYFINVDIKQGWNNGTKITFHGEGDQSSPDSYPGDLVLVLQTKKHSKFVRKSRDLYYRHIITLEQSLTGFDFVIKSLDNRDIHIQIDEVVKPDTKKVIKNEGMPYSRDPSIRGNLIVEFDIIYPNTIKKEQKKLIKEIFKESY
In the case of B2, the values for the Kd with (His)6-PfHsp70-x, in the assay with HSPA1A-(His)6 [2] and with (His)6-PfHsp70-1 were 37 nM, 64 nM and 251 nM, respectively.
